The target in assay [1] is T1, sv2c_rat Sv2c (UniProt Q9Z2I6).
T1 sequence: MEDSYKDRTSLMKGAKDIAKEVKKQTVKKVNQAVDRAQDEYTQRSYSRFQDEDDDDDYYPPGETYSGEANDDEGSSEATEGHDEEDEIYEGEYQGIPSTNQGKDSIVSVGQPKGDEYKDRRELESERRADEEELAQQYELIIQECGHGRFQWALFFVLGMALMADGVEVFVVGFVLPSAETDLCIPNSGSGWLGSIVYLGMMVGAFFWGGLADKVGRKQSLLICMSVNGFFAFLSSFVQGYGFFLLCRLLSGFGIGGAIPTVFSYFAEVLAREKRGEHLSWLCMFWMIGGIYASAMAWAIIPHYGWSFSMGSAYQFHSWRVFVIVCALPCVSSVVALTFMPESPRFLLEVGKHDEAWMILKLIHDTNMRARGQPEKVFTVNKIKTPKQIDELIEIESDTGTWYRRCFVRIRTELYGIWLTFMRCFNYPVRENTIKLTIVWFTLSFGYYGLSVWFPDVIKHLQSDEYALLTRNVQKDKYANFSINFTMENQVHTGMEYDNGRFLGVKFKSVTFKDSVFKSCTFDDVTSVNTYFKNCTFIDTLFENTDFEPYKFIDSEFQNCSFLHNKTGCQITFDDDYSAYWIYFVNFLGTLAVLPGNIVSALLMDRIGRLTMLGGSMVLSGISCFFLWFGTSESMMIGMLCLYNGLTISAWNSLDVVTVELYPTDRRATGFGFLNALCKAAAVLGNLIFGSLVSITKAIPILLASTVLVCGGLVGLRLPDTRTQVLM

Assay [2] deals with T1, sv2c_rat Sv2c. This is another data set of the same source.
Assay [3] has as its target T1, sv2c_rat Sv2c. This is another data set of the same source.
Assay [4] concerns the target T1, sv2c_rat Sv2c. This is another data set of the same source.
In assay [5] the target is T1, sv2c_rat Sv2c. This is another data set of the same source.
Assay [6] has as its target T1, sv2c_rat Sv2c. The source holds these as a separate data set.
The target in assay [7] is T1, sv2c_rat Sv2c. The source holds these as a separate data set.
For assay [8], the target named is T1, sv2c_rat Sv2c. This is another data set of the same source.
The target of assay [9] is T1, sv2c_rat Sv2c. This is another data set of the same source.
Assay [10] concerns the target T1, sv2c_rat Sv2c. The source holds these as a separate data set.

Turning to “Botulinum neurotoxin type A (Clostridium botulinum) (from UniProt P0DPI0) D1108R”, the “effect of a mutation on the interaction” value in the assay with sv2c_rat Sv2c [1] was “decreasing interaction”. “Botulinum neurotoxin type A (Clostridium botulinum) (from UniProt P0DPI0) G1292R”: in the assay with sv2c_rat Sv2c [2], the “effect of a mutation on the interaction” value is recorded as “decreasing interaction”. On to “Botulinum neurotoxin type A (Clostridium botulinum) (from UniProt P0DPI0) H1064G”, for which the “effect of a mutation on the interaction” value with sv2c_rat Sv2c [3] is listed as “decreasing interaction”.

As to “Botulinum neurotoxin type A (Clostridium botulinum) (from UniProt P0DPI0) K1163E”, the “effect of a mutation on the interaction” value with sv2c_rat Sv2c [4] is on record as “decreasing interaction”. As for “Botulinum neurotoxin type A (Clostridium botulinum) (from UniProt P0DPI0) N905Y”, the “effect of a mutation on the interaction” value in the assay with sv2c_rat Sv2c [5] is listed as “decreasing interaction”. Regarding “Botulinum neurotoxin type A (Clostridium botulinum) (from UniProt P0DPI0) N1188A”, the “effect of a mutation on the interaction” value with sv2c_rat Sv2c [6] is recorded as “decreasing interaction”. With “Botulinum neurotoxin type A (Clostridium botulinum) (from UniProt P0DPI0) R1131E”, the “effect of a mutation on the interaction” value in the assay with sv2c_rat Sv2c [7] was “decreasing interaction”.

Turning to “Botulinum neurotoxin type A (Clostridium botulinum) (from UniProt P0DPI0) R1156M”, the “effect of a mutation on the interaction” value with sv2c_rat Sv2c [8] is given as “decreasing interaction”. Turning to “Botulinum neurotoxin type A (Clostridium botulinum) (from UniProt P0DPI0) T1063P”, the “effect of a mutation on the interaction” value with sv2c_rat Sv2c [9] is “decreasing interaction”.

As for “Botulinum neurotoxin type A (Clostridium botulinum) (from UniProt P0DPI0) V1287E”, the “effect of a mutation on the interaction” value with sv2c_rat Sv2c [10] is “decreasing interaction”.

For the origin of these results see IntAct's records for PubMed 24583011.
